Data: patent US6429191B1, “Treatment of hearing impairments” (Genentech, Inc., priority 1996, dated 2002)

B1: neurotrophin-4/5 (protein, UniProt P34130 81-210, looked up)
Neurotrophin-4: GVSETAPASRRGELAVCDAVSGWVTDRRTAVDLRGREVEVLGEVPAAGGSPLRQYFFETRCKADNAEEGGPGAGGGGCRGVDRRHWVSECKAKQSYVRALTADAQGRVGWRWIRIDTACVCTLLSRTGRA
modifications: Neurotrophin-4
B2: FGF-5: growth factor (R & D Systems) (protein, UniProt P12034 21-268, looked up)
Fibroblast growth factor 5: HGEKRLAPKGQPGPAATDRNPRGSSSRQSSSSAMSSSSASSSPAASLGSQGSGLEQSSFQWSPSGRRTGSLYCRVGIGFHLQIYPDGKVNGSHEANMLSVLEIFAVSQGIVGIRGVFSNKFLAMSKKGKLHASAKFTDDCKFRERFQENSYNTYASAIHRTEKTGREWYVALNKRGKAKRGCSPRVKPQHISTHFLPRFKQSEQPELSFTVTVPEKKKPPSPIKPKIPLSAPRKNTNSVKYRLKFRFG
B3: TGF-β3: transforming growth factor (protein, UniProt P10600 301-412, looked up)
Transforming growth factor …: ALDTNYCFRNLEENCCVRPLYIDFRQDLGWKWVHEPKGYYANFCSGPCPYLRSADTTHSTVLGLYNTLNPEASASPCCVPQDLEPLTILYYVGRTPKVEQLSNMVVKSCKCS
B4: FGF-7: growth factor (R&D Systems) (protein, UniProt P21781 32-194, looked up)
Fibroblast growth factor 7: CNDMTPEQMATNVNCSSPERHTRSYDYMEGGDIRVRRLFCRTQWYLRIDKRGKVKGTQEMKNNYNIMEIRTVAVGIVAIKGVESEFYLAMNKEGKLYAKKECNEDCNFKELILENHYNTYASAKWTHNGGEMFVALNQKGIPVRGKKTKKEQKTAHFLPMAIT
B5: E92A NT-3: NT-3 with mutation at position E92 to alanine (protein, UniProt P20783 139-257, looked up, variant E92A)
Neurotrophin-3: YAEHKSHRGEYSVCDSESLWVTDKSSAIDIRGHQVTVLGEIKTGNSPVKQYFYETRCKEARPVKNGCRGIDDKHWNSQCKTSQTYVRALTSANNKLVGWRWIRIDTSCVCALSRKIGRT
modifications: Neurotrophin-3
notes: NT-3 with mutation at position E92 to alanine
B6: TGF-β2: transforming growth factor (protein, UniProt P61812 303-414, looked up)
Transforming growth factor …: ALDAAYCFRNVQDNCCLRPLYIDFKRDLGWKWIHEPKGYNANFCAGACPYLWSSDTQHSRVLSLYNTINPEASASPCCVSQDLEPLTILYYIGKTPKIEQLSNMIVKSCKCS

Experiments:
[1] = tested on: spiral ganglion neurons (SGNs); experiment: Survival of dissociated spiral ganglion neurons in serum-free culture; assay type: cell-based, rat; conditions: for survival-promoting effect on SGNs: P5 rat SGNs, neurotrophins 0.1-50 ng/ml
Description: FIG. 1 is a histogram depicting the effects of NT-4/5 on SGN survival. SGNs were prepared from P5 rats, plated and kept for 2 days in serum-free medium in the absence or presence of NT-4/5 at different concentrations. Viable SGNs were identified by labeling with a neurofilament monoclonal antibody (N52), viewed under a Zeiss Axiophot microscope, and counted using a grid ocular reticule covering an area of […]. For each culture, about 10 randomly selected fields were counted. Data were collected from 3 to 5 cultures and normalized as a percentage of the number of viable neurons in the control cultures in each of the experiments. The error bars represent SEM.
FIG. 2 is a histogram depicting the effects of different neurotrophins on SGN survival. SGNs were prepared from P5 rats and maintained for 2 days in serum-free medium without or with different neurotrophins at different concentrations. Quantitation of viable SGNs was made in the same way as in FIG. 1 and the error bars are SEM. […] Difference between NT-3 and NT-4/5 or BDNF was very significant at all doses (P<0.001). No statistical difference was found between NT-4/5 and BDNF except the dose of 0.1 ng/ml (P<0.01).
Identical results (not shown) were also obtained with a different neuronal marker, a monoclonal antibody 3A10 (Furley et al., 1990). SGNs were dissociated from postnatal day 5 (P5) rat cochleae and plated in defined serum-free medium. […] The enzyme was inactivated with a mixture of 0.005% soybean trypsin inhibitor (Sigma) and 0.005% DNase (Worthington) before trituration with 0.05% DNase in Eagle's Basal Medium (“BME”). The dissociated cells were preplated on a 35 mm untreated tissue culture dish for 25 min to enrich the neuronal population. Under these experimental procedures, about 10% of the cell population were spiral ganglion neurons (“SGNs”) as determined by immunocytochemistry with a monoclonal antibody (N52; Boehringer) against neurofilaments (200 kd; Boehringer). […] Cells were plated at a density of 80,000/well. In control cultures about 75% of SGNs died after 2 days, presumably due to a lack of growth factors.

[2] = tested on: spiral ganglion neurons (SGNs); experiment: Neurotrophin protection of dissociated SGNs against cisplatin neurotoxicity; assay type: cell-based, rat; conditions: 10 ng/ml neurotrophin
Text: Quantitation of viable SGNs was done in the same way as in FIG. 1. The error bars stand for SEM. […] While no difference was found between cultures containing NT-4/5 and cultures containing BDNF, the difference between cultures containing NT-3 and cultures containing NT-4/5 or BDNF was statistically very significant (P<0.001).

[3] = tested on: SGNs in cochlear explants; experiment: Protective effects in cochlear explant cultures co-treated with ototoxins, SGN peripheral axon count; assay type: cell-based, rat; conditions: for protective effects on SGNs against ototoxins: growth factor added together with ototoxin, data not shown
Description: (§1) FIGS. 9A and 9B depict quantitation of protective effects of NT-4/5 on SGNs (FIG. 9A) and hair cells (FIG. 9B). […] The same experimental procedures were performed as in FIGS. 6A and 6B. The error bars are SEM and ** indicate that as compared to the cultures containing an ototoxin alone, p<0.001. “Con” indicates control culture.
FIG. 10 depicts quantitation of neuroprotection of different neurotrophins against sodium salicylate (Sal) and gentamicin (Gent). […] Sodium salicylate (5 mM) or gentamicin (3 mM) was added either alone or in combination with one of the neurotrophins (20 ng/ml) to 2-day cultures and the cultures were kept for 2 more days. The same experimental procedures were performed as in FIGS. 6A and 6B. […] The error bars are SEM and ** indicate that as compared to the cultures containing an ototoxin alone, p<0.001.
(§2) The protective effect of neurotrophins against ototoxicity was determined in the organotypic cultures of postnatal cochlear explants described in the Examples above. […] A human recombinant neurotrophin (Genentech, Inc.) or other growth factors, alone or in combination, was added to the culture at the same time the ototoxin was added.
(§3) Two days after treatment with ototoxins or co-treatment with ototoxins and neurotrophins (or other growth factors), the cochlear explant cultures were fixed in 4% paraformaldehyde in 0.1 M phosphate buffer (pH 7.4) for 30 min, washed in PBS, and subjected to double histochemical staining of the cochlear explant cultures. After incubation with the monoclonal antibody N52 against neurofilament protein (200 kd) in 1% Triton X100 containing 3% normal goat serum (“NGS”) for 2 days at 4° C., the explants were incubated with a Texas red-conjugated goat anti-mouse secondary antibody (1:70; Cappel) at room temperature for 40 min. The preparations were then stained with FITC-conjugated phalloidin (0.5 μg/ml; Sigma) for 45 min, washed in PBS and mounted in Fluoromount-G (Southern Biotechnology Associates, Birmingham, Ala.) which contains an anti-fading agent.

[4] = tested on: hair cells in cochlear explants; experiment: Protective effects in cochlear explant cultures co-treated with ototoxins, hair cell count; assay type: cell-based, rat; conditions: for protective effects on hair cells against ototoxins: growth factor added together with ototoxin, data not shown
Description: as §1, §2, §3

[5] = target: trkC receptor (Homo sapiens, UniProt Q16288); conditions: compared with NT-3; cited from earlier work
Chain of trkC receptor (Q16288 32-839): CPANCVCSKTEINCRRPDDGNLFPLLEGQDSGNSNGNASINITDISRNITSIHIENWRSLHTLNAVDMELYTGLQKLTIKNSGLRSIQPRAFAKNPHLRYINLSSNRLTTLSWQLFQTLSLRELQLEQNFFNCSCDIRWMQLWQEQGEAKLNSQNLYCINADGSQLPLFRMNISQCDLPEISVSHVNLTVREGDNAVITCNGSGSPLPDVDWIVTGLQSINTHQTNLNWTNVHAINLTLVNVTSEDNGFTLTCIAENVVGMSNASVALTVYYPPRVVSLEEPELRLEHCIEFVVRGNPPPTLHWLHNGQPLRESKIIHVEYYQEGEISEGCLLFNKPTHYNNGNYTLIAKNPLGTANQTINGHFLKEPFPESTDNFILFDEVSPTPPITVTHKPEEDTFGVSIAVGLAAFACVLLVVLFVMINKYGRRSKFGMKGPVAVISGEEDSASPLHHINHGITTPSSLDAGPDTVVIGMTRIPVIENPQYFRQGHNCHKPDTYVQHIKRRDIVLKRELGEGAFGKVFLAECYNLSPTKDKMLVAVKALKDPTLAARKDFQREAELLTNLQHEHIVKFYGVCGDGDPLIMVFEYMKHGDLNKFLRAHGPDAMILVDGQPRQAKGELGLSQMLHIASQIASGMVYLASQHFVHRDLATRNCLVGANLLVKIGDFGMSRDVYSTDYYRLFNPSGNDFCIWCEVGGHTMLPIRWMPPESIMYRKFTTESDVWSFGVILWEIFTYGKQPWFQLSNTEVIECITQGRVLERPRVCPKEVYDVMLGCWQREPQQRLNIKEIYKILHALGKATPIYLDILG

Row | Molecule | survival-promoting effect on SGNs ([1]; 2 days, serum-free medium) | protective effects on SGNs against ototoxins [3] | protective effects on hair cells against ototoxins [4] | also measured
1 | B1 | greatly enhanced the number of surviving SGNs in a dose-dependent manner |  |  | potency on SGN survival compared with other neurotrophins ([1]; 0.1 ng/ml): more potent than BDNF; maximal effect, increase in number of surviving SGNs ([1]; 10 ng/ml, 2 days, serum-free medium, vs control cultures): approximately 3 fold; synergistic/additive effects on SGN survival when added together with BDNF or NT-3 ([1]; saturated concentrations): no additive effects; percentage of surviving SGNs compared with control cultures lacking cisplatin ([2]; 1 μg/ml or 2 μg/ml cisplatin, 2 days): higher than that in the control cultures lacking cisplatin; protection of SGNs compared with cultures containing cisplatin alone ([2]; 4 μg/ml cisplatin): significantly protected SGNs from cell death; survival level, % of control cultures in the absence of cisplatin ([2]; 4 μg/ml cisplatin, 2 days): 70%; neuroprotection of SGNs against sodium salicylate and gentamicin ([3]; 20 ng/ml neurotrophin, sodium salicylate 5 mM or gentamicin 3 mM): significant neuroprotection; number of SGNs in control cultures ([3]; 20 ng/ml, no ototoxin): did not enhance; protection of SGNs from the three ototoxins ([3]; 20 ng/ml, sodium salicylate 5 mM, gentamicin 3 mM or cisplatin 4 μg/ml, 2 days co-treatment): significantly protected SGNs from the three ototoxins; number of hair cells in control cultures ([4]; 20 ng/ml, no ototoxin): did not enhance
2 | B2 |  | did not show detectable protective effects | did not show detectable protective effects | 
3 | B3 | No survival-promoting effects | did not show detectable protective effects | did not show detectable protective effects | 
4 | B4 |  | did not show detectable protective effects | did not show detectable protective effects | 
5 | B5 |  |  |  | trkC binding of NT-3 mutant [5]: increased trkC binding
6 | B6 | No survival-promoting effects | did not show detectable protective effects | did not show detectable protective effects | 
